# Laboratory results reported in article doi:10.1101/467431 (bioRxiv, 2018).
# Where two headings read alike, the source gives them in different places.
# T1: Sca2 C-terminal fragment, construct Sca_(868-1515) (Rickettsia conorii, UniProt Q92JF7 868-1515)
# T1 sequence: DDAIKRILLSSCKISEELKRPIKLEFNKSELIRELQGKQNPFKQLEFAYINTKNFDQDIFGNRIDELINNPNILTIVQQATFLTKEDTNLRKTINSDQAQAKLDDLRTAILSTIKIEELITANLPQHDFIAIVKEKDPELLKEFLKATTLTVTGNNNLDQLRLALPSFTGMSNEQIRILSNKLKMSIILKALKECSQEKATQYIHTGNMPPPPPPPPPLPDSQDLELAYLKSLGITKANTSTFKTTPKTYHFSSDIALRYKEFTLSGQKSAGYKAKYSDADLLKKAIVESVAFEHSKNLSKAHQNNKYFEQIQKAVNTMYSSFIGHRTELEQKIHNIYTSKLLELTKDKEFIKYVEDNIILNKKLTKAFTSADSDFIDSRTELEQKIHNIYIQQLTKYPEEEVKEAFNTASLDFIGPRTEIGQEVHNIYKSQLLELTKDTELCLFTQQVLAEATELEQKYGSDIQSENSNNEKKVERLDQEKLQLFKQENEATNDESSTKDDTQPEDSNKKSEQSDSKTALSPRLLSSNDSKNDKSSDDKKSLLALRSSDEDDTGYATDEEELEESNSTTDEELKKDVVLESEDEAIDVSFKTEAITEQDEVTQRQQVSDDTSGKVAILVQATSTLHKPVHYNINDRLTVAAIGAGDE
# B1: Sca2 construct Sca_(869-1060) (domain or fragment)
# chain: DAIKRILLSSCKISEELKRPIKLEFNKSELIRELQGKQNPFKQLEFAYINTKNFDQDIFGNRIDELINNPNILTIVQQATFLTKEDTNLRKTINSDQAQAKLDDLRTAILSTIKIEELITANLPQHDFIAIVKEKDPELLKEFLKATTLTVTGNNNLDQLRLALPSFTGMSNEQIRILSNKLKMSIILKALK
# B2: Sca2 N-terminal fragment, construct Sca_(34-670) (domain or fragment)
# chain: ASFKDLVSKTPAWEKHNSTQQQNIWKDLTPNEKIKKWQEAALVPSFTQAQNDLGIKYKETDLSSFLDNTRHKARQARAEILLYIERVKQQDFDTKKQAYINQGVVPTDIEAATNLGISYDPSKIDNNVEHDQKVRRAEKDKKAVIELYVSSINRGIKYKHYVDNDIIPEIQEVRTALNMNKDDAQSFVASIRTEIMENAKGQYIADSHIPTEKELKKKFGISRDDNRDGYIKSIRLKVMDKEKPQYIADSHIPTEKELEQKFGADKGEATNYIASIATQMMLDKKSYYIDNNIIPNADELMNEFKIGPVKATSYINQIRAGIEANQFLNNNDTTKPSTGRSQKKSGSKNDHWYMSNQSINNTGTSARIVTGREKKQRYFFDPISTFKTYFNTKASKGNLTQSQHNINRIIQQEENIEEFKNLIKTDPIAALTLQVDSSYKQEAVTTILSDFNDDTIQRVLFSNDKGKLDFNTNIDVKNRPILQELLENSSSEEKTKFAERIQDYATRNISNSQFEEKARLDLIKLAASKDKSSVENFLTLQLELKNRMQPYVVNSVYILTPEIVKEINIELKNKGLIRDSLTKDYMIKLAKEVNNHTLNSVIKVILSDSKILSNETNKILGLAVSNNANNLEQTQSG
# Columns and labels:
# Experiment in all cases: ITC
# [1] = target: T2, monomeric actin (LatB-actin) (UniProt P68135 1-377)
# [2] = target: T1, Sca2 C-terminal fragment, construct …
# [3] = target: T2, monomeric actin (LatB-actin); remark: listed apart in the source
Binder,Kd [1] [µM],stoichiometry N [1],Kd [2] [µM],stoichiometry N [3],Kd [3] [µM]
B1,10.8,1 LatB-actin monomer per Sca_(869-1060),–,–,–
B2,–,–,7,2 actin subunits per Sca_(34-670),–
AAANNNNNNNNNNLGARSVLLEAIRKGIQLRKV (domain or fragment) [MBP fusion of the WH2 domain of WAVE1 (WAVE1 WH2a)],–,–,–,1.07,0.38
